How the values were obtained:
[1] = target: ACVR1B (activin receptor type-1B), endogenous in mouse cells (mouse) (UniProt Q61271); assay: cell-based or functional assay
[2] = target: TGFBR1 (transforming growth factor, beta receptor I), endogenous in mouse cells (mouse) (UniProt Q64729); assay: cell-based or functional assay
UniProt Q64729, sequence (Q64729 30-503): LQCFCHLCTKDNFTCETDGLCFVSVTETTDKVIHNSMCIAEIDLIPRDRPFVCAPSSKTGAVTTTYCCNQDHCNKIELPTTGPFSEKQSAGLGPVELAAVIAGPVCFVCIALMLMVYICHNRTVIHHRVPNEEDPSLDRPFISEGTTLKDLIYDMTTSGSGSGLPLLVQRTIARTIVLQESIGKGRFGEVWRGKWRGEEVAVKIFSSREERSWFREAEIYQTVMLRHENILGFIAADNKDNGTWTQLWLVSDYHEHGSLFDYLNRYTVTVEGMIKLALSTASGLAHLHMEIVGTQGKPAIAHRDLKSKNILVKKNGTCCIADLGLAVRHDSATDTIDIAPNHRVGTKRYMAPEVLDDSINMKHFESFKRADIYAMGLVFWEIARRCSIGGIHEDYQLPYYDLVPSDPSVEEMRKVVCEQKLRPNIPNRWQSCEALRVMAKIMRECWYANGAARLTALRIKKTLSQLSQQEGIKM

UniProt Q61271, sequence (Q61271 24-505): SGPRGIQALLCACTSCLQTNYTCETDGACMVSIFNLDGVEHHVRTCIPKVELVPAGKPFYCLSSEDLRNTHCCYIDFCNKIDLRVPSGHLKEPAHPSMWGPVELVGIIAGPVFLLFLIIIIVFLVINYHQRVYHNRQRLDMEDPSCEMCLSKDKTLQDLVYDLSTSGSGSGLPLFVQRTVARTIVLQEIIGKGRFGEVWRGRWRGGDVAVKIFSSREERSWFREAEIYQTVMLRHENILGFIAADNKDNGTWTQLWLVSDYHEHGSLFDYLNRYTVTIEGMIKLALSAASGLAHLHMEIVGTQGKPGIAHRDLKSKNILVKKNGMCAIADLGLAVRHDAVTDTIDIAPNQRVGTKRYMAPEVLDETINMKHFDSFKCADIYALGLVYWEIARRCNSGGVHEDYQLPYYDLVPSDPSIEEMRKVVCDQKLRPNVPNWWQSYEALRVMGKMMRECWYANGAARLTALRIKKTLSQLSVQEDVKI

myostatin-induced CAGA luciferase in C2C12 cells upon siRNA knockdown of ACVR1B [1] [folds]	myostatin-induced luciferase in C2C12 upon A4E6 AON transfection (fold decrease) [1]	myostatin-induced CAGA luciferase in C3H10 T1/2 cells upon siRNA knockdown of TGFBR1 [2] [folds]	myostatin-induced luciferase in C3H10 T1/2 cells upon TGFBR1 knockdown with A5E2 or A5E6 AON [2] [%]	TGF-beta-mediated CAGA luciferase activity in C2C12 and C3H10 T1/2 cells upon siRNA knockdown of TGFBR1 [2] [folds]	Substance
5	3	2.5	50	–	myostatin (from UniProt O14793 267-375) (ligand)
–	–	–	–	3	TGF-beta (ligand)

From patent US20140088174A1
